Here are results for eight molecules from patent US20240272170A1 (QUANTUM SI, published 2024).

Assay [1] addresses RA Peptide (stopped-flow). The assay can be described thus: stopped-flow rapid kinetics.
The target in assay [2] is RL Peptide (stopped-flow). The assay can be described thus: stopped-flow rapid kinetics.
Assay [3] concerns the target T1, HA peptide (Octet assay of PS621 variants).
T1 construct: XAKLDEESILKQK with X = H
T1 peptide: HAKLDEESILKQK
The assay can be described thus: Octet (BLI), 30 C. (BLI is a label-free optical method that tracks binding on a fibre tip over time.)

Assay [4] concerns the target T2, KA peptide (Octet assay of PS621 variants).
T2 construct: XAKLDEESILKQK with X = K
T2 peptide: KAKLDEESILKQK
Kind of assay: Octet (BLI), 30 C.

The target in assay [5] is T3, RR peptide (Octet assay of PS621 variants).
T3 construct: RX… with X = R
The assay can be described thus: Octet (BLI), 30 C. The source says: (§1) Peptides of the sequence RXKLDEESILKQK (SEQ ID NO: 1076) were also used to evaluate the penultimate residue effect.

Assay [6] has as its target T4, RE peptide (Octet assay of PS621 variants).
T4 construct: RXKLDEESILKQK with X = E
T4 peptide: REKLDEESILKQK
Kind of assay: Octet (BLI), 30 C.
From the text: as §1

The target of assay [7] is T5, RA peptide (Octet assay of PS621 variants).
T5 construct: X… with X = R
The assay can be described thus: Octet (BLI), 30 C.
From the text: as §1

In assay [8] the target is T6, RQ peptide (Octet assay of PS621 variants).
T6 construct: RX… with X = Q
Kind of assay: Octet (BLI), 30 C.
From the text: as §1

Assay [9] concerns the target T7, RF peptide (Octet assay of PS621 variants).
T7 construct: RX… with X = F
Kind of assay: Octet (BLI), 30 C.
From the text: as §1

The target in assay [10] is T8, RL peptide (Octet assay of PS621 variants).
T8 construct: RXKLDEESILKQK with X = L
T8 peptide: RLKLDEESILKQK
Kind of assay: Octet (BLI), 30 C.
From the text: as §1

In assay [11] the target is T9, RS peptide (Octet assay of PS621 variants).
T9 construct: RXKLDEESILKQK with X = S
T9 peptide: RSKLDEESILKQK
Kind of assay: Octet (BLI), 30 C.
From the text: as §1

In assay [12] the target is T10, HL Peptide (stopped-flow).
T10 construct: the text around it speaks of HA peptide
Kind of assay: stopped-flow rapid kinetics.

Assay [13] concerns the target T11, labeled peptide X…-FITC with N-terminal valine (FITC on the C-terminal Lys).
T11 construct: also called VA peptide; valine peptide
Kind of assay: fluorescence polarization; text of paragraph 337. For orientation: Polarisation of emitted light reports the rotation of a fluorescent probe.

Assay [14] has as its target T12, IA peptide (Octet assay of PS557 variants).
T12 construct: Peptide coated on the Octet sensor
The assay can be described thus: Octet (BLI), peptide on sensor, response after 200 s association. The source says: (§2) In the high-throughput assay, Octet sensors are coated with the peptide of interest and dipped in buffer containing the purified protein. […] Studying the on and off-rate can also give insight into the mechanism of binding.

Assay [15] deals with T13, FA peptide (Octet assay of PS557 variants).
T13 construct: Peptide coated on the Octet sensor
Described as above.
From the text: as §2

The target of assay [16] is T14, MA peptide (Octet assay of PS557 variants).
T14 construct: Peptide coated on the Octet sensor
Described as above.
From the text: as §2

In assay [17] the target is T15, VA peptide (Octet assay of PS557 variants).
T15 construct: Peptide coated on the Octet sensor
Described as above.
From the text: as §2

Assay [18] concerns the target T16, LA peptide (Octet assay of PS557 variants).
T16 construct: Peptide coated on the Octet sensor
The assay is described as above.
From the text: as §2

Assay [19] addresses T17, AA peptide (Octet assay of PS557 variants).
T17 construct: Peptide coated on the Octet sensor
Described as above.
From the text: as §2

Assay [20] concerns the target T12, IA peptide (Octet assay of PS557 …). The description is as above. The source says: (§3) In the high-throughput assay, Octet sensors are coated with the peptide of interest and dipped in buffer containing the purified protein. An approximation of relative binding can be obtained by comparing the response after 200 seconds for each protein. Each protein has approximately the same molecular mass and is used at the same concentration, so ranking the proteins by response level in this assay gives an approximation of which proteins have improved binding. Studying the on and off-rate can also give insight into the mechanism of binding.
The source holds these as a separate data set.

Assay [21] concerns the target T13, FA peptide (Octet assay of PS557 …). The description is as above.
From the text: as §3
This is another data set of the same source.

The target in assay [22] is T14, MA peptide (Octet assay of PS557 …). Described as above.
From the text: as §3
The source holds these as a separate data set.

Assay [23] has as its target T18, WA peptide (Octet assay of PS557 variants).
T18 construct: Peptide coated on the Octet sensor
Described as above.
From the text: as §3

The target of assay [24] is T19, YA peptide (Octet assay of PS557 variants).
T19 construct: Peptide coated on the Octet sensor
The assay is described as above.
From the text: as §3

The target in assay [25] is T20, IA Peptide (fluorescence polarization).
T20 peptide: IAKLDEESILKQK(FITC)
The assay can be described thus: fluorescence polarization, FITC peptide titrated with protein.

The target of assay [26] is T21, AA Peptide (fluorescence polarization), AAKLDEESILKQ{LYS(FITC)}.
T21 peptide: AAKLDEESILKQK(FITC)
The description is as above.

Assay [27] concerns the target T22, LA Peptide (fluorescence polarization).
T22 peptide: LAKLDEESILKQK(FITC)
Described as above.

In assay [28] the target is T23, AA peptide.
T23 construct: The peptide was coated on the Octet sensor; also called peptide with N-terminal alanine and penultimate alanine
Kind of assay: BLI (Octet), peptide on sensor, purified protein in solution; second row for PS829.
From the text: as §3

Assay [29] concerns the target T24, VA peptide.
T24 construct: The peptide was coated on the Octet sensor; also called peptide with N-terminal valine and penultimate alanine
The description is as above.
From the text: as §3

Assay [30] concerns the target T25, LA peptide.
T25 construct: The peptide was coated on the Octet sensor; also called peptide with N-terminal leucine and penultimate alanine
The assay is described as above.
From the text: as §3

Assay [31] has as its target T23, AA peptide. The assay can be described thus: BLI (Octet), peptide on sensor, purified protein in solution.
From the text: as §3

For assay [32], the target named is T24, VA peptide. The assay is described as above.
From the text: as §3

Assay [33] concerns the target T25, LA peptide. Described as above.
From the text: as §3

In assay [34] the target is T23, AA peptide. Kind of assay: BLI (Octet), peptide on sensor, purified protein in solution; second row for PS833.
From the text: as §3

The target in assay [35] is T24, VA peptide. The assay is described as above.
From the text: as §3

Assay [36] deals with T25, LA peptide. The description is as above.
From the text: as §3

Assay [37] has as its target T11, labeled peptide X…-FITC with N-terminal …. The assay can be described thus: fluorescence polarization.
Assay [38] has as its target VA Peptide (fluorescence polarization) (FITC on the C-terminal lysine). The assay can be described thus: fluorescence polarization, FITC peptide titrated with protein.
The target in assay [39] is T26, MA Peptide (fluorescence polarization).
T26 peptide: MAKLDEESILKQK(FITC)
The assay is described as above.

Assay [40] deals with T12, IA peptide (Octet assay of PS557 …). The assay can be described thus: Octet (BLI), peptide on sensor, response after 200 s association; second PS833 row.
From the text: as §3

In assay [41] the target is T13, FA peptide (Octet assay of PS557 …). The description is as above.
From the text: as §3

Assay [42] deals with T14, MA peptide (Octet assay of PS557 …). Described as above.
From the text: as §3

For assay [43], the target named is T18, WA peptide (Octet assay of PS557 …). The assay is described as above.
From the text: as §3

The target of assay [44] is T19, YA peptide (Octet assay of PS557 …). The description is as above.
From the text: as §3

No end group written: not given here. *: point of attachment. FITC = O=C1OC2(c3ccc(O)cc3Oc3cc(O)ccc32)c2ccc(NC(=S)*)cc21

B1: PS621 (other)
chain: MHSKFSHAGRICGAKFKVGEPIYRCKECSFDDTCVLCVNCFNPKDHTGHHVYTTICTEFNNGICDCGDKEAWNHTLFCKAEEG
notes: UBR protein (UBR-box) parent of PS1101-PS1122
With B1, the koff (commonly the rate constant with which the complex falls apart) in [1] worked out at 61.8 s⁻¹; in assay [2], 17.7 s⁻¹. In addition, the Octet response worked out at 2 in [3]; 5.2 in assay [4]; 6.3 in [5]; 5.8 in [6]; 9.3 in assay [7]; 7.4 in assay [8]. Further, the values for the Octet response in [9], in assay [10] and in assay [11] were 8.4, 10.2 and 7.1, respectively.

B2: PS1115 (designed binder)
chain: MHSKFSHAGRICGAKFKVGEPIYRCKECSFDDTCVLCVNCFNPKDHRGHHVYTTICTERNNGICDCGDKEAWNHELFCKAEEG
notes: Variant of PS621
In the case of B2, the koff in assay [12] stood at 40.2 s⁻¹; in assay [2] it was 14.4 s⁻¹. Moreover, the Octet response in assay [3] worked out at 3; in assay [4] it was 6.5; in assay [5], 6.7; in assay [6], 7.6; in [7] it was 10.8; in assay [8], 9.1. Also, the results for the Octet response in assay [9], in assay [10] and in assay [11] were 10, 11.8 and 8.5, respectively.

B3: PS557 (other)
chain: MPTAASATESAIEDTPAPARPEVDGRTKPKRQPRYHVVLWNDDDHTYQYVVVMLQSLFGHPPERGYRLAKEVDTQGRVIVLTTTREHAELKRDQIHAFGYDRLLARSKGSMKASIEAEE
notes: tag of the purified construct not specified; also called wild-type protein; WT
For B3, the Kd – broadly, the free concentration of one partner at which half of the binding sites on the other are occupied at equilibrium, for simple one-to-one binding – in assay [13] amounted to 1.17 µM.

B4: PS557 (other)
chain: MPTAASATESAIEDTPAPARPEVDGRTKPKRQPRYHVVLWNDDDHTYQYVVVMLQSLFGHPPERGYRLAKEVDTQGRVIVLTTTREHAELKRDQIHAFGYDRLLARSKGSMKASIEAEE
notes: Natural ClpS parent protein; also called WT; wild-type protein
Take B4: the Octet response amounted to 7.2 nm in assay [14]; 0.634 nm in assay [15]; 1.95 nm in assay [16]; 4.8 nm in assay [17]; 7.16 nm in assay [18]; 0.612 nm in [19]. Further, the Octet response in assay [20] is 8.79 nm; in assay [21], 0.0096 nm; in assay [22], 1.68 nm; in [23], 0.0049 nm; in assay [24], 0.0431 nm. Besides, the Kd in assay [25] came out at 0.289 µM; in assay [26] it was 10 µM; in [27], 0.052 µM.

B5: PS829 (designed binder)
chain: MPTAASATESAIEDTPAPARPEVDGRTKPKRQPRYHVVLWDDDDHTYQYVVVMLQSLFGHPRERGYRLAKEMDTLGRVIVLTTTREHAELKRDQIHAFGYDRLLARSKGSMKASIEAEE
notes: Variant of PS557
Turning to B5, the “Octet response after 200 sec association” value was 4.5 nm in the assay with AA peptide [28]; 11.3 nm with VA peptide [29]; 10.9 nm with LA peptide [30]; 2.5 nm in the assay with AA peptide [31]; 9.5 nm with VA peptide [32]; 8.5 nm with LA peptide [33].

B6: PS833 (designed binder)
chain: MPTAASATESAIEDTPAPARPVVDGRTKPKRQPRYHVVLWDDDDHTYQYVVVMLQSLFGHPPERGYRLAKEMDTQGRVIVLTTTREHAELKRDQIHAFGYDRLLARSKGSMKASIEAEE
notes: Variant of PS557
B6: the “Octet response after 200 sec association” value came to 0.849 nm with AA peptide [34]; 10.4 nm with VA peptide [35]; 12.4 nm in the assay with LA peptide [36]; 1 nm with AA peptide [31]; 8.6 nm with VA peptide [32]; 10.7 nm with LA peptide [33].

B7: PS824 (designed binder)
chain: MPTAASATESAFEDTPAPARPEVDGRTKPKRQPRYHVVLWDDDDHTYQYVVVMLRSLFGHPPERGYRLAKEMDTQGRVIVLTTTREHAELKRDQIHAFGYDRLLARSKGSMKASIEAEE
notes: PS557 with I12F, N41D, Q55R, V72M
Turning to B7, the “fold improvement of binding against the wild-type protein PS557” value in assay [37] was 5 fold.

B8: PS833 (designed binder)
chain: MPTAASATESAIEDTPAPARPVVDGRTKPKRQPRYHVVLWDDDDHTYQYVVVMLQSLFGHPPERGYRLAKEMDTQGRVIVLTTTREHAELKRDQIHAFGYDRLLARSKGSMKASIEAEE
notes: Variant of PS557
In the case of B8, the Octet response in [20] was found to be 9.26 nm; in assay [21], 0.0509 nm; in assay [22], 5.11 nm; in assay [23], 0.00561 nm; in assay [24] it was 0.117 nm; in [40] it was 10.8 nm. In addition, the Octet response in assay [41] was determined as 0.0889 nm; in assay [42], 7.01 nm; in [43], 0.0006 nm; in [44], 0.109 nm. Further, the Kd in assay [38] was 0.312 µM; in assay [39], 1.04 µM; in assay [26] it was 7.08 µM.
